{"source": "patent CN117024595A", "about": "(JIANGXI LECHENG XINSHENG BIOTECHNOLOGY RES CO LTD, dated 2023)", "binders": {"B1": {"name": "检测抗体D12(抗人ST2的单克隆抗体) (antibody, V domains shown)", "VH": "QVTLKESGPGILQPSQTLSLTCSFSGFSLSTSGMGVGWIRQPSGKGLEWLAHIWWDDVKQYNPALKSRLTISKDTSSSQVFLKIASVDTADIATYYCARLGGNWDYFDYWGQGTTLTVSS", "VL": "DIVLTQSPASLVVSLGQRATISCRASESVDSCGVSFMKWLQQKPGQPPKLLIYVASKVESGVPARFGGSGSGTDFSLNIHPVEEDDFAVYFCQQSRKVPWTFGGGTKLEIK", "notes": "Mouse hybridoma monoclonal antibody purified from ascites on Protein G; HRP-labelled in one orientation of the sandwich ELISA; coupled to fluorescent microspheres in the strip; also called detection antibody"}}, "biological_target": "T1, 带有His组氨酸标签蛋白的人ST2重组蛋白 (human, UniProt Q01638 19-328, limits assumed)", "T1 construct": "Captured on a His-capture BLI sensor; also called His-tagged recombinant human ST2 protein; not shown: His tag", "T1 sequence (looked up)": "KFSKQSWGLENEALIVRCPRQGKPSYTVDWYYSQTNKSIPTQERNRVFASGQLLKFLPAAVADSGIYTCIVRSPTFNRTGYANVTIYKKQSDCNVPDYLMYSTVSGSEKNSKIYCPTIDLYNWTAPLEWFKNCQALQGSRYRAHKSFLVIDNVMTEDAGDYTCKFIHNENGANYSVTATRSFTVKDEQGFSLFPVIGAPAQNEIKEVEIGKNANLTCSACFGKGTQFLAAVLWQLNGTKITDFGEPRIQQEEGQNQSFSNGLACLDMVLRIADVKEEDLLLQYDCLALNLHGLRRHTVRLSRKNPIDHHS", "assay": "BLI, His-tagged human ST2 captured on HIS sensor, antibody in solution at several concentrations"}
{"binder": "B1", "values": [{"measurement": "Kd", "result": 0.02, "unit": "nM"}]}
